Data: patent US20140357577A1, “HIV Membrane Fusion Inhibitors” (priority 2011, published 2014)
Starred links: 1 amine or outer side, 2 acyl side, 3 side chain; linkers in the order of their positions; H or OH if unused. Positions of bridges follow the written chain, without caps; N, C: chain ends. Non-standard residues stand in square brackets, D forms with d. pXylylene = c1cc(C[*:2])ccc1C[*:1]; Suc = O=C(CCC(=O)[*:2])[*:1]; Abu = CC[C@H](N)C(=O)O; B1 = not defined here

B1: peptide 51 (peptide)
peptide: Ac-ACYLACIEALIRRAQEQQEKNEAALR-NH2
modifications: linker 2-6 via pXylylene
SMILES: CC[C@H](C)[C@H](NC(=O)[C@@H]1CSCc2ccc(cc2)CSC[C@H](NC(=O)[C@H](C)NC(C)=O)C(=O)N[C@@H](Cc2ccc(O)cc2)C(=O)N[C@@H](CC(C)C)C(=O)N[C@@H](C)C(=O)N1)C(=O)N[C@@H](CCC(=O)O)C(=O)N[C@@H](C)C(=O)N[C@@H](CC(C)C)C(=O)N[C@H](C(=O)N[C@@H](CCCNC(=N)N)C(=O)N[C@@H](CCCNC(=N)N)C(=O)N[C@@H](C)C(=O)N[C@@H](CCC(N)=O)C(=O)N[C@@H](CCC(=O)O)C(=O)N[C@@H](CCC(N)=O)C(=O)N[C@@H](CCC(N)=O)C(=O)N[C@@H](CCC(=O)O)C(=O)N[C@@H](CCCCN)C(=O)N[C@@H](CC(N)=O)C(=O)N[C@@H](CCC(=O)O)C(=O)N[C@@H](C)C(=O)N[C@@H](C)C(=O)N[C@@H](CC(C)C)C(=O)N[C@@H](CCCNC(=N)N)C(N)=O)[C@@H](C)CC
B2: peptide 1 (peptide)
peptide: Suc-ANYLALIEALIRAAQEQQEKNEAAL-NH2
SMILES: CC[C@H](C)[C@H](NC(=O)[C@H](CC(C)C)NC(=O)[C@H](C)NC(=O)[C@H](CCC(=O)O)NC(=O)[C@@H](NC(=O)[C@H](CC(C)C)NC(=O)[C@H](C)NC(=O)[C@H](CC(C)C)NC(=O)[C@H](Cc1ccc(O)cc1)NC(=O)[C@H](CC(N)=O)NC(=O)[C@H](C)NC(=O)CCC(=O)O)[C@@H](C)CC)C(=O)N[C@@H](CCCNC(=N)N)C(=O)N[C@@H](C)C(=O)N[C@@H](C)C(=O)N[C@@H](CCC(N)=O)C(=O)N[C@@H](CCC(=O)O)C(=O)N[C@@H](CCC(N)=O)C(=O)N[C@@H](CCC(N)=O)C(=O)N[C@@H](CCC(=O)O)C(=O)N[C@@H](CCCCN)C(=O)N[C@@H](CC(N)=O)C(=O)N[C@@H](CCC(=O)O)C(=O)N[C@@H](C)C(=O)N[C@@H](C)C(=O)N[C@@H](CC(C)C)C(N)=O
B3: peptide 49 (peptide)
peptide: Suc-ACY[Abu]ACIEALIRAAQEQQEKNEAALR-NH2
modifications: linker 2-6 via B1; reading uncertain
B4: peptide 50 (peptide)
peptide: Ac-ECYLRCIEALIRAAQEQQEKNEAALR-NH2
modifications: linker 2-6 via pXylylene
SMILES: CC[C@H](C)[C@H](NC(=O)[C@H](CC(C)C)NC(=O)[C@H](C)NC(=O)[C@H](CCC(=O)O)NC(=O)[C@@H](NC(=O)[C@@H]1CSCc2ccc(cc2)CSC[C@H](NC(=O)[C@H](CCC(=O)O)NC(C)=O)C(=O)N[C@@H](Cc2ccc(O)cc2)C(=O)N[C@@H](CC(C)C)C(=O)N[C@@H](CCCNC(=N)N)C(=O)N1)[C@@H](C)CC)C(=O)N[C@@H](CCCNC(=N)N)C(=O)N[C@@H](C)C(=O)N[C@@H](C)C(=O)N[C@@H](CCC(N)=O)C(=O)N[C@@H](CCC(=O)O)C(=O)N[C@@H](CCC(N)=O)C(=O)N[C@@H](CCC(N)=O)C(=O)N[C@@H](CCC(=O)O)C(=O)N[C@@H](CCCCN)C(=O)N[C@@H](CC(N)=O)C(=O)N[C@@H](CCC(=O)O)C(=O)N[C@@H](C)C(=O)N[C@@H](C)C(=O)N[C@@H](CC(C)C)C(=O)N[C@@H](CCCNC(=N)N)C(N)=O

target: gp41 of HIV-1 strain HXB2D with mutation V38A (HIV-1 strain HXB2D, UniProt P04578); assay: cell-based or functional assay

First: B1
Second: B2
The “fold change in EC50, HIV-HXB2D V38A mutant” value of the first is lower: 10 fold for the first, 57 fold for the second.

Compared with B3, B4 is lower in “fold change in EC50, HIV-HXB2D V38A mutant” value: 33 fold for the first, 12 fold for the second.
